# Assay results published in patent EP4628097A1 (Innovent Biologics (Suzhou) Co., Ltd., dated 2025).
# T1: human Ang2 (human, UniProt O15123 19-496, limits assumed)
# T1 construct: Bought proteins; also called hAng2-biotin; Ang2-Bio (Sino)
# T1 sequence (looked up): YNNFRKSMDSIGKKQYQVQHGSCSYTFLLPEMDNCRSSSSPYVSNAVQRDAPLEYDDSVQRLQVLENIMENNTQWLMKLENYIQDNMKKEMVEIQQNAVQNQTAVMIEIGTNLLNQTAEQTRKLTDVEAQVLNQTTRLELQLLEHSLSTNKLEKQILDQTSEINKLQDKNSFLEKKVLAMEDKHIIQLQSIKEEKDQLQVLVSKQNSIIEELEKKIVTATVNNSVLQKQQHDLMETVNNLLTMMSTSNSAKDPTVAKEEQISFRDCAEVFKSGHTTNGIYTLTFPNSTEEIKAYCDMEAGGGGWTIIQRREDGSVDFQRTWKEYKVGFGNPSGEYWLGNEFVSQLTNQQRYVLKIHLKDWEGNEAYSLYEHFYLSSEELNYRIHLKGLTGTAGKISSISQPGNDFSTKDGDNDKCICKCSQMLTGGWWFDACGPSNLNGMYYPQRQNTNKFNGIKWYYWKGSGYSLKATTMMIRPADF
# Columns and labels:
# human Ang2 [1] = biological target: T1, human Ang2; experiment: ELISA, relative binding activity; IEX04-012 about 40 mg/mL in F7, 40 C, 2 weeks
# human VEGF165 [2] = biological target: T2, human VEGF165 (human, UniProt P15692-4 27-191); experiment: as above
# T2 construct: all are put under this molecule; also called VEGF A; VEGFA
# human Ang2 [3] = biological target: T1, human Ang2; experiment: ELISA, relative binding activity; IEX04-012 about 40 mg/mL in F10, 40 C, 2 weeks
# human VEGF165 [4] = biological target: T2, human VEGF165; experiment: as above
# human Ang2 [5] = biological target: T1, human Ang2; experiment: ELISA, relative binding activity; IEX04-012 about 40 mg/mL in F10, 40 C, 0 weeks
# human VEGF165 [6] = biological target: T2, human VEGF165; experiment: as above
# human Ang2 [7] = biological target: T1, human Ang2; experiment: ELISA, relative binding activity; 120 mg/mL formula, 25 C, 3M
# human VEGF165 [8] = biological target: T2, human VEGF165; experiment: as above
# human Ang2 [9] = biological target: T1, human Ang2; experiment: ELISA, relative binding activity; IEX04-012 about 40 mg/mL in F8, 40 C, 1 week
# human VEGF165 [10] = biological target: T2, human VEGF165; experiment: as above
# human Ang2 [11] = biological target: T1, human Ang2; experiment: ELISA, relative binding activity; IEX04-012 about 40 mg/mL in F1, 40 C, 1 week
# human VEGF165 [12] = biological target: T2, human VEGF165; experiment: as above
# human Ang2 [13] = biological target: T1, human Ang2; experiment: ELISA, relative binding activity; final formula 40 mg/mL, 25 C, 2M
# human VEGF165 [14] = biological target: T2, human VEGF165; experiment: as above
# human Ang2 [15] = biological target: T1, human Ang2; experiment: ELISA, relative binding activity; 120 mg/mL formula, 2-8 C, 12M
# human VEGF165 [16] = biological target: T2, human VEGF165; experiment: as above
# human Ang2 [17] = biological target: T1, human Ang2; experiment: ELISA, relative binding activity; 120 mg/mL formula, 25 C, 1M
# human VEGF165 [18] = biological target: T2, human VEGF165; experiment: as above
# human Ang2 [19] = biological target: T1, human Ang2; experiment: ELISA, relative binding activity; IEX04-012 about 40 mg/mL in F2, 40 C, 0 weeks
# human VEGF165 [20] = biological target: T2, human VEGF165; experiment: as above
# human Ang2 [21] = biological target: T1, human Ang2; experiment: ELISA, relative binding activity; IEX04-012 about 40 mg/mL in F2, 40 C, 1 week
# human VEGF165 [22] = biological target: T2, human VEGF165; experiment: as above
# human Ang2 [23] = biological target: T1, human Ang2; experiment: ELISA, relative binding activity; final formula 40 mg/mL, 40 C, 4W
# human Ang2 [24] = biological target: T1, human Ang2; experiment: ELISA, relative binding activity; final formula 40 mg/mL, 40 C, 2W
# human VEGF165 [25] = biological target: T2, human VEGF165; experiment: as above
# T2 sequence (P15692 other isoform, or with tags, fused parts or gaps limits assumed): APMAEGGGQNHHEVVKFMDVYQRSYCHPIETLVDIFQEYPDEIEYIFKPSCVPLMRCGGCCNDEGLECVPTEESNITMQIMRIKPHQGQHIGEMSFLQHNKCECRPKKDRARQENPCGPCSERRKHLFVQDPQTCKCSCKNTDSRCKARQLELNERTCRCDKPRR
binder,measurement,setting,value
IEX04-012 (bispecific antibody) DIQLTQSPSSLSASVGDRVTITCSASQDISNYLNWYQQKPGKAPKVLIYFTSSLHSGVPSRFSGSGSGTDFTLTISSLQPEDFATYYCQQYSTVPWTFGCGTKVEIKGGGGSGGGGSGGGGSGGGGSEVQLVESGGGLVQPGGSLRLSCAASGYDFTHYGMNWVRQAPGKCLEWVGWINTYTGEPTYAADFKRRFTFSLDTSKSTAYLQMNSLRAEDTAVYYCAKYPYYYGTSHWYFDVWGQGTLVTVSSGGGGSGGGGSGGGGSEVQLLESGGGLVQPGGSLRLSCAASGFALDYYAIGWFRQAPGKGLEGVSCISSGEGSTYYADSVKGRFTISRDNSKNTVYLQMNSLRAEDTAVYYCATDSRGDDVACEGLRRNEYDYWGQGTLVTVSS,"Relative binding Activity to Ang2 (ELISA, %)",human Ang2 [1],87%
same,"Relative binding Activity to VEGF (ELISA, %)",human VEGF165 [2],100%
same,"Relative binding Activity to Ang2 (ELISA, %)",human Ang2 [3],99%
same,"Relative binding Activity to VEGF (ELISA, %)",human VEGF165 [4],99%
same,"Relative binding Activity to Ang2 (ELISA, %)",human Ang2 [5],100%
same,"Relative binding Activity to VEGF (ELISA, %)",human VEGF165 [6],100%
same,"Relative binding Activity to Ang2 (ELISA, %)",human Ang2 [7],75%
same,"Relative binding Activity to VEGF A (ELISA, %)",human VEGF165 [8],106%
same,"Relative binding Activity to Ang2 (ELISA, %)",human Ang2 [9],92%
same,"Relative binding Activity to VEGF (ELISA, %)",human VEGF165 [10],101%
same,"Relative binding Activity to Ang2 (ELISA, %)",human Ang2 [11],103%
same,"Relative binding Activity to VEGF (ELISA, %)",human VEGF165 [12],98%
same,"Relative binding Activity to Ang2 (ELISA, %)",human Ang2 [13],84%
same,"Relative binding Activity to VEGF A (ELISA, %)",human VEGF165 [14],102%
same,"Relative binding Activity to Ang2 (ELISA, %)",human Ang2 [15],104%
same,"Relative binding Activity to VEGF A (ELISA, %)",human VEGF165 [16],104%
same,"Relative binding Activity to Ang2 (ELISA, %)",human Ang2 [17],93%
same,"Relative binding Activity to VEGF A (ELISA, %)",human VEGF165 [18],96%
same,"Relative binding Activity to Ang2 (ELISA, %)",human Ang2 [19],100%
same,"Relative binding Activity to VEGF (ELISA, %)",human VEGF165 [20],100%
same,"Relative binding Activity to Ang2 (ELISA, %)",human Ang2 [21],99%
same,"Relative binding Activity to VEGF (ELISA, %)",human VEGF165 [22],98%
same,"Relative binding Activity to Ang2 (ELISA, %)",human Ang2 [23],74%
same,"Relative binding Activity to Ang2 (ELISA, %)",human Ang2 [24],86%
same,"Relative binding Activity to VEGF A (ELISA, %)",human VEGF165 [25],91%
